# Data from article PMC548347.
# T1: SSB (single-strand binding protein) (Sulfolobus solfataricus, UniProt Q97W73 1-148)
# T1 sequence: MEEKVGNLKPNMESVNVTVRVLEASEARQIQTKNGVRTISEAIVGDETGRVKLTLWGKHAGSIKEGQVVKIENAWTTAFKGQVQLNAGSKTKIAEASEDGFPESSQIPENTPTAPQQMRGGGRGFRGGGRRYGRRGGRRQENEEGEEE
# B1: RGA oligonucleotide (dsDNA)
# DNA 1: GGCTGTCGACGAAGATAGAGGACTTAATCGATATC
# DNA 2: GGGATATCGATTAAGTCCTCTATCTTCGTCGACAG
# Molecular target: T1, SSB (single-strand binding protein)
# Assay: EMSA
binder,measurement,value
B1,binding result,binds
